# Patent US10787678
# Target: A. diaperinus cadherin-1 (AdCad1) (Alphitobius diaperinus)
# Test: cell-based or functional assay
substance,measurement,value
Cry3Bb toxin (from UniProt Q06117 64-652),"larval mortality on day 3, 100 ug/cm^2 Cry3Bb, larvae injected with AdCad1-dsRNA #1 (AdCad1 knocked down)",8%
same,"larval mortality on day 3, 100 ug/cm^2 Cry3Bb, larvae injected with AdCad1-dsRNA #2 (AdCad1 knocked down)",11%
